Measured values reported in US20150166668A1 (PROMIS NEUROSCIENCES, published 2015).

B1: DSE3 ab120 (antibody, V domains shown)
VH: QSVEESGGHLVTPGTPLTLTCTVSGIDLSTYAMGWVRQAPGKGLEWIGVITKSGNTYYASWAKGRFAISKTSTTVDLKITSPTTEDTATYFCGRYGIGVSYYDIWGPGTLVTVSS
VL: AQVLTQTPSPVSAAVGGTVTINCQSSQSLYNKNWLSWYQKKPGQPPKLLIYKASTLESGVSSRFKGSGSGTQFTLTISGVQCDDAATYYCQGEFSCSSADCTAFGGGTEVVVKG

Assays:
[1] = target: PrP on the surface of normal cells (human) (UniProt P04156)
[2] = target: PrP on the surface of normal cells (human) (UniProt P04156); test: flow cytometry on HOEpiC Donor 1 normal ovarian epithelium
[3] = target: PrP on the surface of normal cells (human) (UniProt P04156); test: flow cytometry on HOEpiC Donor 2 normal ovarian epithelium
[4] = target: PrP on the surface of normal cells (human) (UniProt P04156); test: flow cytometry on HOEpiC Donor 3 normal ovarian epithelium
[5] = target: T1, BSA-DSE3 peptide (human); test: ELISA, plate coated with BSA-peptide
T1 construct: also called immunogen peptides; specific peptide

Molecule	EC50 [1] [nM]	Ave S/N [2]	Ave S/N [3]	Ave S/N [4]	EC50 [5] [nM]
Anti-PrP 6H4 antibody	17	8.31	14.2	15.1	–
B1	–	–	–	–	0.0655
